Experimental data from patent US20230125550A1 (ARCELLX, published 2023).

These binders were tested against T1, recombinant human CD123-Fc (human, UniProt P26951 19-305) (assay: phage ELISA, captured CD123-Fc).
T1 construct: not shown: Fc part of CD123-Fc
T1 sequence: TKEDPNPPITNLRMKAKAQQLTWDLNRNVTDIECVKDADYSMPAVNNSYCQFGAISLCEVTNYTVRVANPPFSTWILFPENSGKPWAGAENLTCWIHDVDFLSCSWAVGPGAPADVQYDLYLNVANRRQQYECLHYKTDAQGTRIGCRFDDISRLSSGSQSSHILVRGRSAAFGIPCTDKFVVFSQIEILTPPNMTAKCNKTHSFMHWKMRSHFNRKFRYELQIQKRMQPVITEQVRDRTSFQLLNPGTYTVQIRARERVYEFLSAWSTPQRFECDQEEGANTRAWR
In short: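 Phage from BCMA panning colonies were rescued with VCSM13 helper phage and diluted 5× in blocking buffer. Plates coated with anti-human IgG1-Fc captured 5 nM target-Fc or IgG1-Fc, and binding was detected with HRP anti-M13. Ratio = A450 target/A450 IgG1-Fc, averaged over the clone's wells.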

Binder	ELISA_avg
SEQ ID NO: 533 (designed binder, D domain, on phage) MGSWAEFKQRLAAIKTRLEALGGSEAELAAFMDEIMAFEWELWAYKGKGNPEVEALMNEAFAIDVELYAYRHN	3.4 ratio A450 target/IgG1-Fc
SEQ ID NO: 523 (designed binder, D domain, on phage) MGSWDEFKEDLAHIKTDLEALGGSEAELALFEDEIADFEMYLQHYKGKGNPEVEALRKEAAAIRDELQAYRHN	6.3 ratio A450 target/IgG1-Fc
SEQ ID NO: 536 (designed binder, D domain, on phage) MGSWWEFQFRLYAIDQRLLALGGSEAELAEFEQDIADFEWMLQDYKGKGNPEVEALMLEADAIEAELKAYRHN	3.1 ratio A450 target/IgG1-Fc
SEQ ID NO: 535 (designed binder, D domain, on phage) MGSWWEFDHRLTAIDTRLQALGGSEAELAEFESSIAEFEWWLQDYKGKGNPEVEALFAEAEAIYVELDAYRHN	4.3 ratio A450 target/IgG1-Fc
SEQ ID NO: 521 (designed binder, D domain, on phage) MGSWNDFKEELAWIKFDLEALGGSEAELAWFEEDIAMFEQQLQAYKGKGNPEVEALRKEAAAIRDELQAYRHN	3.8 ratio A450 target/IgG1-Fc
SEQ ID NO: 531 (designed binder, D domain, on phage) MGSWTEFKGELAEIKWILEALGGSEAELAFFEDEIAAFEWDLQKYKGKGNPEVEALRKEAAAIRDELQAYRHN	8.2 ratio A450 target/IgG1-Fc
SEQ ID NO: 527 (designed binder, D domain, on phage) MGSWVVFKQDLADINHQLEALGGSEAELAWFEWEIADFEWELQHYKGKGNPEVEALRKEAAAIRDELQAYRHN	3.6 ratio A450 target/IgG1-Fc
SEQ ID NO: 534 (designed binder, D domain, on phage) MGSWAEFKQRLAAIKTRLEALGGSEAELAAFEWEIVAFFSELFAYKGKGNPEVEALRDEAIAIETELVAYRHN	3.6 ratio A450 target/IgG1-Fc
SEQ ID NO: 525 (designed binder, D domain, on phage) MGSWYQFKDDLAHIKHLLEALGGSEAELAVFEYIIADFESFLQIYKGKGNPEVEALRKEAAAIRDELQAYRHN	4 ratio A450 target/IgG1-Fc
SEQ ID NO: 537 (designed binder, D domain, on phage) MGSWYEFDHRLDAIYQRLWALGGSEAELAEFEYGIAEFEEYLQDYKGKGNPEVEALISEAWAIEWELSAYRHN	4.6 ratio A450 target/IgG1-Fc
SEQ ID NO: 529 (designed binder, D domain, on phage) MGSWHWFKEDLAMITDVLEALGGSEAELAAFESEIAVFEADLQYYKGKGNPEVEALRKEAAAIRDELQAYRHN	5.2 ratio A450 target/IgG1-Fc
SEQ ID NO: 524 (designed binder, D domain, on phage) MGSWDFFKYDLANINEWLEALGGSEAELADFEYGIADFELWLQDYKGKGNPEVEALRKEAAAIRDELQAYRHN	5.5 ratio A450 target/IgG1-Fc
SEQ ID NO: 530 (designed binder, D domain, on phage) MGSWSWFQWDLAGIKDHLEALGGSEAELAEFESEIAYFEDELQWYKGKGNPEVEALRKEAAAIRDELQAYRHN	12.9 ratio A450 target/IgG1-Fc
SEQ ID NO: 526 (designed binder, D domain, on phage) MGSWAEFKHDLADIKRELEALGGSEAELAWFELSIAFFEDELQHYKGKGNPEVEALRKEAAAIRDELQAYRHN	3.3 ratio A450 target/IgG1-Fc
SEQ ID NO: 528 (designed binder, D domain, on phage) MGSWFQFKEFLAMITHNLEALGGSEAELAEFEHDIALFESELQQYKGKGNPEVEALRKEAAAIRDELQAYRHN	3.1 ratio A450 target/IgG1-Fc
SEQ ID NO: 538 (designed binder, D domain, on phage) MGSWYEFDMRLDAIWERLTALGGSEAELADFEQYIAEFERQLQDYKGKGNPEVEALFDEAWAIEDELYAYRHN	13.7 ratio A450 target/IgG1-Fc
SEQ ID NO: 532 (designed binder, D domain, on phage) MGSWFEFKWTLALIKQELEALGGSEAELADFEQEIAEFEWWLQTYKGKGNPEVEALRKEAAAIRDELQAYRHN	4.9 ratio A450 target/IgG1-Fc
SEQ ID NO: 522 (designed binder, D domain, on phage) MGSWWDFKDWLAEIKHDLEALGGSEAELALFESEIADFEFGLQWYKGKGNPEVEALRKEAAAIRDELQAYRHN	4.2 ratio A450 target/IgG1-Fc
